Assay results: paper PMC9493720
pKd: −log10 of the molar value.

Legend:
[1] = biological target: human surfactant protein A (SP-A), native, supratrimeric (human) (UniProt Q8IWL2); assay: native gel or EMSA + other: electron microscopy + AUC; degree of oligomerization of isolated SP-A; electrophoresis under nondenaturing conditions, electron microscopy and analytical ultracentrifugation
[2] = biological target: recombinant trimeric fragment of human SP-A1 (rfhSP-A) (human); assay: other fluorescence titration; intrinsic tryptophan fluorescence of rfhSP-A, PMB added, 25°C, 5 mM Tris-HCl pH 7.4 without NaCl; apparent KD from the Hill equation
[3] = biological target: human surfactant protein A (SP-A), native, supratrimeric (human) (UniProt Q8IWL2); assay: other fluorescence titration; intrinsic tryptophan fluorescence of SP-A (15 nM) or rfhSP-A (0.3 μM), polymyxin added at increasing concentrations, 25°C, 5 mM Tris-HCl pH 7.4 with 150 mM NaCl; apparent KD from the Hill equation

Substance	stoichiometry N [1]	pKd [2]	pKd [3]
human surfactant protein A (SP-A), native, supratrimeric (from UniProt Q8IWL2 21-248) (natural protein)	> 18	–	–
polymyxin B (PMB) (peptide)	–	5.86	6.49
polymyxin B nonapeptide (PMBN)	–	–	6.59
